Results on two compounds are retold here after patent US10918726B2, “Carbosilane dendrimer and aggregatable carrier obtained using said dendrimer for drug delivery system” (Quarrymen & Co. Inc., priority 2014, dated 2021).

A short description of the data set: Particle size of raw materials and micelles by dynamic light scattering (DLS, ZETASIZER NANO-S). Format: physicochemical. The note with it: for particle size: DLS after overnight incubation at 37° C., measured at 25° C.; for Particle diameter peak by number / Particle diameter peak by scattering intensity / Zeta Average (average particle diameter): Table 1, raw materials and products in PBS, measured 5 times at 25° C. How it is done:
After vortex, the solution was stood at 37° C. for overnight incubation to bind GFP and the silole dendrimer, and subsequently to form the micelles. The incubation time for this experiment was about 16 to 18 hours. The properties of the micelle particles in the solution were measured by using dynamic light scattering method (DLS; Dynamic light scattering).
Also, the particle size in the reaction mixture was measured at 25° C. by using ZETASIZER NANO-S(manufactured by Malvern Instrument Ltd.) with a laser beam wavelength of 532 nm.
It was measured whether the micelles including each drug are formed in the sample to which each model drug is added; and if the micelles including the drug are formed, their particle size were measured by using the dynamic light scattering method. Here, DiI, Oil orange SS, and goat anti mouse IgG-Alexa 610 were used as drug models.
The particle properties of the target peptide sequence-binding micelle were measured by a dynamic light scattering method as the same as used in the example 1 (see FIG. 11). […] As a result, the particles having the particle size of about 100 nm to 200 nm were confirmed as the same as those in the example 1.

With “20 μM GFP only: green fluorescent protein, SEQ ID NO: 1, cysteine at position 251, cysteine 60 replaced with serine”, the particle size result is on record as “about 4 nm”, the “Particle diameter peak by number” value came out at 4.682 nm, the “Particle diameter peak by scattering intensity” value was 838.8 nm and the “Zeta Average (average particle diameter)” value came to 860.7 nm.
Consider `C[Si](C)(CCC[Si](CCCBr)(CCCBr)CCCBr)CCC[Si](CCCBr)(CCCBr)CCCBr` [50 μM Silole only], for which the particle size entry is given as “about 650 nm”, the “Particle diameter peak by number” value was determined as 649.3 nm, the “Particle diameter peak by scattering intensity” value is listed as 664.6 nm and the “Zeta Average (average particle diameter)” value amounted to 894.5 nm.
